Values quoted from earlier work as cited in PMC6232131.

Biological target: fibrinogen beta (Homo sapiens) (UniProt P02675)
Chain of UniProt P02675 (P02675 45-491): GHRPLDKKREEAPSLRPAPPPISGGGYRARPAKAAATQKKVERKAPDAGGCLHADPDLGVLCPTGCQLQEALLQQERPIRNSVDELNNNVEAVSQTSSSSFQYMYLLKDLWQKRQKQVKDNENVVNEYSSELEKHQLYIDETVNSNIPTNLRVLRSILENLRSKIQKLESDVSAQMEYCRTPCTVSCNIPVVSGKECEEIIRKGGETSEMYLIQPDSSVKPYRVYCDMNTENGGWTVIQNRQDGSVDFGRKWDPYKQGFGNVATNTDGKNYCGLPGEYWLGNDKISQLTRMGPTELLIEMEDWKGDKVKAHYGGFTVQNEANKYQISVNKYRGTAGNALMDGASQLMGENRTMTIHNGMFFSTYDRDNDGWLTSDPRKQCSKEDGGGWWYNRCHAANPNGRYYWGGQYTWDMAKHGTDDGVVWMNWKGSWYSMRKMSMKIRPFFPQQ

SdrG N2N3 (from UniProt Q9KI13)
Kd: 400 nM
